Broadly, the IC50 is the concentration that gives 50% inhibition. For orientation: koff means a measure of how fast the partners let go of each other. Usually Kd stands for the constant that tells how readily two partners part at equilibrium. The kon is the rate constant with which the complex forms.

From patent US20200040103A1 come the findings set out here.

Assay [1] addresses recombinant human KLK5 (human) (UniProt Q9Y337). Put plainly: pro-KLK1 LC/MS assay, 0.5 nM KLK5, 300 nM pro-KLK1; box column 2 of 3; no unit printed, nM per text.
The target is the same in assay [2]. Put plainly: pro-KLK1 LC/MS assay, 0.5 nM KLK5, 300 nM pro-KLK1; box column 1 of 3; no unit printed, nM per text.
For assay [3] the target is unchanged. Put plainly: pro-KLK7 LC/MS assay, 5 nM KLK5, 15 nM pro-KLK7, nM.
Assay [4] shares this target. Put plainly: pro-KLK1 coupled assay, 0.5 nM KLK5.
Assay [5] shares this target. Put plainly: pro-KLK1 coupled assay, 0.5 nM KLK5, 31.25 nM pro-KLK1, PFR-AMC.
The target is the same in assay [6]. Put plainly: array SPR imaging (IBIS MX96), antibody amine-coupled, human KLK5 injected 0-300 nM, 25 C.
The target is the same in assay [7]. Put plainly: Kiapp assay curve, 0.500 nM KLK5, Z-VPR-pNA.
Assay [8] has the same target. Put plainly: pro-KLK7 coupled assay, 5 nM KLK5, 125 nM pro-KLK7, suc-LLVY-AMC.
The target is the same in assay [9]. Put plainly: Kiapp, KLK5 0.5-0.0625 nM, Z-VPR-pNA.
Assay [10] has the same target. Put plainly: pro-KLK7 coupled assay, 5 nM KLK5.
Assay [11] shares this target. Put plainly: Kiapp assay curve, 0.250 nM KLK5, Z-VPR-pNA.
Assay [12] shares this target. Put plainly: Kiapp assay curve, 0.063 nM KLK5, Z-VPR-pNA.
Assay [13] has the same target. Put plainly: direct activity assay, 5 nM KLK5, Boc-VPR-AMC.
Assay [14] has the same target. Put plainly: Kiapp as the y-intercept of the line of IC50 (nM) versus KLK5 (nM), Z-VPR-pNA.
Assay [15] shares this target. Put plainly: pro-KLK1 LC/MS assay, 0.5 nM KLK5, 300 nM pro-KLK1; box column 3 of 3; no unit printed, nM per text.
Assay [16] shares this target. Put plainly: Kiapp assay curve, 0.125 nM KLK5, Z-VPR-pNA.
Assay [17] shares this target. Put plainly: KLK5 direct activity assay, 5 nM KLK5, Boc-VPR-AMC.
Assay [18] shares this target. Put plainly: pro-KLK1 LC/MS assay, 0.5 nM KLK5.
Assay [19] shares this target. Put plainly: pro-KLK7 LC/MS assay, 5 nM KLK5.
Assay [20] has the same target. Put plainly: SPR BIAcore T200, antibody captured by anti-human Fc, human KLK5 as analyte, 37 C. (SPR reads the build-up and loss of mass on a sensor chip optically.)

Sequence of recombinant human KLK5 (human) (Q9Y337 67-293): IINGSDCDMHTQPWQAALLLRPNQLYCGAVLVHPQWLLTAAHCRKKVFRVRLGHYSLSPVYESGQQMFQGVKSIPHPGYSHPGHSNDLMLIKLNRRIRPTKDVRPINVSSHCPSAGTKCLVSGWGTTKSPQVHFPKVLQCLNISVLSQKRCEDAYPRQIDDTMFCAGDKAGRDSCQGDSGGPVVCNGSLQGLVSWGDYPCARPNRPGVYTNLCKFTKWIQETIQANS

B1: 10H3 (antibody, V domains shown)
VH: QSVKESEGGLIKPTDTLTLTCTVSGFSLSTFAINWVRQAPGNGLEWIGAIGRGGSAYYASWAKSRSTITKNTNLNTVTLKMTRPTAADTATYFCARENAGSGWGELDIWGPGTLVTVSS
VL: AYEMTQTPASVEVAVGGTVTINCQASESISSDLAWYQQKPGQRPKLLIYAASTLASGVPSRFKGSGSGTEFTLSISGVQCADAATYYCQQGYTWNNVDNVFGGGTEVVVK
With B1, the IC50 worked out at 116 pM in assay [1]; 4.85 pM in [2]; 968 pM in assay [3]; 122 pM in assay [4]; 1170 pM in assay [10]; 1090 pM in [13]. For the same molecule, the IC50 in assay [15] is 130 pM; in assay [18], 80 pM; in assay [19], 970 pM. The IC50 (read off the curve) in assay [5] worked out at 100 pM; in assay [7], 400 pM; in assay [8], 1000 pM; in [11] it was 300 pM; in [12], 200 pM; in assay [16], 300 pM. For the same molecule, the IC50 (read off the curve) in assay [17] was 1000 pM. Further, the off-rate (koff) in assay [6] came out at 0.000589 s⁻¹. Besides, the Ki in assay [9] stood at 510 pM; in assay [14], 393 pM.

B2: 9H3 (antibody, V domains shown)
VH: QSVKESEGGLFKPTDTLTLTCTVSGFSLSGYGVSWVRQAPGKGLEYIGFIGSGGSAYYASWAKSRSTITRNTNLNTVTLKMTRLTAADTATYFCARDNVGGDMSLDIWGPGTLVTVSS
VL: DIVMTQTPASVSEPVGGTVTIKCQASQNINNYLSWYQQKPGQPPKQLIYAASTLASGVPSRFKGSGSGTQFTLTISDLECADAATYYCHQDYTSNNVDNTFGGGTEVVVK
For B2, the IC50 came out at 80.2 pM in assay [1]; 72.8 pM in assay [2]; 1050 pM in assay [3]; 120 pM in assay [4]; 1050 pM in assay [10]; 1080 pM in [13]. The IC50 came out at 104 pM in [15], 90 pM in assay [18] and 1050 pM in [19]. The IC50 (read off the curve) in [5] is 100 pM; in [7], 200 pM; in [8], 1000 pM; in assay [11] it was 100 pM; in assay [12] it was 50 pM; in assay [16], 70 pM. In addition, the IC50 (read off the curve) in [17] came out at 900 pM. Also, the koff in [6] worked out at 0.000143 s⁻¹. Besides, the Ki in assay [9] amounted to 70 pM; in assay [14], 69.7 pM.

B3: 8B7 (antibody, V domains shown)
VH: QSVKESEGGLFKPTDNLTLTCTVSGFSLSNYGVTWVRQAPGNGLEYIGFIGSSGSAYYASWAKSRSTITRNTNLNTVTLKMTSLTAADTATYFCARDDVGGGKSLDIWGPGTLVTVSS
VL: NIVMTQTPASVEVAVGGTVTIKCQASQSIGSYLSWYQQKPGQPPKLLIYDASNLASGVPSRFKGSGSGTQFTLSISDLECADAATYYCHQDYTSNNVDNTFGGGTEVVIK
For B3, the IC50 in assay [1] was determined as 132 pM; in assay [2] it was 47.3 pM; in assay [3], 1290 pM; in assay [4], 125 pM; in assay [10], 920 pM; in assay [13] it was 1100 pM. In addition, the figures for the 50% inhibitory concentration (IC50) in assay [15], in assay [18] and in assay [19] were 106 pM, 90 pM and 1290 pM, respectively. The IC50 (read off the curve) in assay [5] was determined as 100 pM; in assay [7] it was 200 pM; in assay [8], 1000 pM; in assay [11], 200 pM; in [12], 200 pM; in assay [16], 200 pM. Further, in assay [17], the IC50 (read off the curve) fell in the range of 1000 to 2000 pM. Further, the koff in [6] turned out to be 0.000547 s⁻¹. In addition, the Ki is 320 pM in assay [9] and 264 pM in assay [14].

B4: 9H5 (antibody, V domains shown)
VH: QSVKESEGGLFKPTDNLTLTCTVSGFSLSSYGVSWVRQAPGNGLEYIGFIGSGGFAYYASWAKSRSTITRNTNLNTVTLKMTSLTAADTATYFCARDDVGGGKSLDIWGPGTVVTVSV
VL: NIVMTQTPASVEAAVGGTVTINCQASQSISSYLSWYQQKSGQRPKLLIFSASTLASGVPSRFTGSGSGTQFTLTISDLQCADAATYYCHQDYTSSNVDNTFGGGTEVVVK
In the case of B4, the half-maximal inhibitory concentration (IC50) in assay [1] was 343 pM; in [2], 138 pM; in assay [3], 1680 pM; in assay [4] it was 139 pM; in assay [10], 870 pM; in [13], 1080 pM. Besides, the IC50 came out at 102 pM in assay [15], 190 pM in assay [18] and 1680 pM in [19]. Besides, the IC50 (read off the curve) was 100 to 200 pM in assay [5]; 300 pM in [7]; 800 pM in assay [8]; 200 pM in [11]; 200 pM in assay [12]; 200 pM in assay [16]. The IC50 (read off the curve) in assay [17] came to 800 pM. The koff in assay [6] came to 0.000367 s⁻¹; in assay [20] it was 0.000137 s⁻¹. Moreover, the equilibrium dissociation constant (Kd) in assay [20] was 193 pM. In assay [20], the on-rate (kon) is 705000 M⁻¹ s⁻¹. Besides, the Ki came out at 425 pM in [9] and 402 pM in assay [14].

B5: 9F2 (antibody, V domains shown)
VH: QSVKESEGGLFKPTDNLTLTCTVSGFSLSSYGVSWVRQAPGNGLEYIGFIGSGGSPYYASWAKSRSTITRNTNLNTVTLKMTSLTAADTATYFCARDDVGGGKSLDIWGPGTLVTVSS
VL: NIVMTQTPASVEVAVGGTVIIKCQASQSISNYLSWYHQKSGQRPRLLIYSASTLASGVPSRFKGSGSGTQFTLTISDLECADAATYYCHQDYTSNSVDNTFGGGTEVVVK
As for B5, the IC50 in [1] turned out to be 137 pM; in [2] it was 108 pM; in assay [3], 1260 pM; in assay [4], 137 pM; in assay [10], 930 pM; in [13], 1010 pM. Moreover, the values for the IC50 in assay [15], in [18] and in [19] were 180 pM, 140 pM and 1260 pM, respectively. Besides, the IC50 (read off the curve) in assay [5] is 100 to 200 pM; in assay [7] it was 300 pM; in assay [8], 900 pM; in [11] it was 200 pM; in assay [12] it was 200 pM; in [16] it was 200 pM. In addition, the IC50 (read off the curve) in assay [17] was in the range of 1000 to 2000 pM. Further, the dissociation rate constant (koff) in [6] came out at 0.000339 s⁻¹. The Ki in [9] amounted to 430 pM; in assay [14], 377 pM.

B6: 10C8 (antibody, V domains shown)
VH: QSVKESEGGLFKPTDNLTLTCTVSGFSLSSYGVSWVRQAPGNGLEYIGFIGSGGFAYYASWAKSRSTITRNTNLNTVTLKMTSLTAADTATYFCARDDVGGGRSLDIWGPGTVVTVSS
VL: NIVMTQTPASVEVAMGGTVIIKCQASQSISTYLSWYQQKPGQPPKLLIYSASTLASGVSSRFEGSGSGTQFTLTISGVQCADAATYYCHQDYTSNNVDNTFGGGTEVVVK
Take B6: the IC50 in assay [1] came to 225 pM; in assay [2], 58.8 pM; in assay [3] it was 1800 pM; in assay [4], 151 pM; in assay [10], 1160 pM; in assay [13] it was 890 pM. Also, the IC50 worked out at 149 pM in assay [15], 140 pM in assay [18] and 1800 pM in assay [19]. The IC50 (read off the curve) in assay [5] was 100 to 200 pM; in [7] it was 200 pM; in [8], 1000 pM; in assay [11] it was 200 pM; in [12] it was 200 pM; in [16], 200 pM. The IC50 (read off the curve) in assay [17] was found to be 900 pM. Also, the dissociation rate constant (koff) in assay [6] amounted to 6.16e-05 s⁻¹. Moreover, the Ki in assay [9] turned out to be 265 pM; in [14] it was 277 pM.
